Data taken from article PMC6993865 (Biochemical Journal, 2020).
“And” between values parts separate entries of the source, which are not always exact repeats. Equal entries are not always repeated.

Target: T1, chymotrypsin-treated recombinant P. falciparum SUB1 (P. falciparum, UniProt Q8I0V0 218-688)
T1 construct: subtilisin-like protease SUB1, P. falciparum, PF3D7_0507500; recombinant, chymotrypsin-treated; also called rPfSUB1; PfSUB1
T1 sequence: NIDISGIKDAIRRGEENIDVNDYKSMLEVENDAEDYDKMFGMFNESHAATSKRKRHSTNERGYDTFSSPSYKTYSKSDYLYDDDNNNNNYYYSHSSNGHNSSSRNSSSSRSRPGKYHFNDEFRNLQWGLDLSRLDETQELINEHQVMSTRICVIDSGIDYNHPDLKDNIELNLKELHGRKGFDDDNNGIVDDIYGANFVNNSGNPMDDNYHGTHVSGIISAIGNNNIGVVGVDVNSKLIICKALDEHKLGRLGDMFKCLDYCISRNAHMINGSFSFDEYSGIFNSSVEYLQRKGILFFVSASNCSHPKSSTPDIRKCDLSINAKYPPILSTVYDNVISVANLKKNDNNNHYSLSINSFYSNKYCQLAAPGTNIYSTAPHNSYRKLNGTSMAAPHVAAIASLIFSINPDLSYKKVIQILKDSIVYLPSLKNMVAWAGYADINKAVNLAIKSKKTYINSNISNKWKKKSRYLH
Test: enzyme inhibition kinetics (fluorogenic peptide substrate); rSUB1-ProM (7.81-250 nM final) added to ongoing hydrolysis of SERA4st1F-6R12 (0.1 µM, well below Km) by rPfSUB1 (0.045 U in 100 µl); 25 mM Tris-HCl pH 8.2, 25 mM CHAPS, 12 mM CaCl2; 21°C; apparent tight-binding inhibition constant, Ki(app) ~ Ki
Settings: both partners purified

B1: recombinant Plasmodium falciparum SUB1-ProM (SUB1 propeptide mimic), GST-free (natural protein)
chain: QVTPAGTVLNSNSALISRRINRRKMKNCNNNDLLKVLKMETTYNELPAHNLLMSSKNDINKLFDYINKNEELSKLMNSCGTYVYLKYLGVVIFSIKENVQISHLSEFIQYLLNKNVCIEFNQNVML
notes: SUB1-ProM, P. falciparum 3D7, PF3D7_0507400, residues 28-153 of the 153-residue protein (lacks the predicted 27-residue signal peptide); synthetic gene; also called rSUB1-ProM; PfSUB1-ProM; source: E. coli BL21(R2), purified (Glutathione Sepharose 4B, PreScission cleavage, Superdex 200)
Ki: 5.67 nM and 5.34 nM
